# Measured values taken from US20050153287A1, “Nr3b nmda receptor subunit compositions and related methods” (priority 2001, published 2005).
# B1: NR3B: mouse NR3B NMDA receptor subunit polypeptide (SEQ ID NO: 2), expressed from cDNA plasmid in HEK293 cells (protein, listed as Mus musculus)
# chain: MECVQTLWLSLALALARGSWVVRGHPQPCGVPTRAGASVRLAALLPRAPAARARVLAALATPSPRLPHNLSLELVAVASPTRDPASLARGLCQVLAPPGVVASITFPEARPELRLLQFLAAATETPVLSVLRREVRAPLGAPTPFHLQLDWASPLETILDVLVSLVRAHAWEDIALVLCRVRDPSGLVTLWTSRASQAPKFVLDLSQLDSGNDSLRATLALLGTLEGGGTPVSAAVLLGCSTAHAHEVLEAAPPGPQWLLGTPLPAEALPKTGLPPGVLVLGETGQPSLEAAVHDMVELVARALSSMALMHPERALLPAAVNCEDLKTGGSESTARTLARFLSNTSFQGRTGAVWVAGSSQVHVSRHFKVWSLRRDPLGAPAWATVGSWQDGQLDFQPGAAALRVPSPSGTQARPKLRVVTLVEHPFVFTRESDEDGQCPAGQLCLDPGTNDSARLDALFTALENGSVPRTLRRCCYGYCIDLLERLAEDLAFDFELYIVGDGKYGALRDGRWTGLVGDLLAGRAHMAVTSFSINSARSQVVDFTSPFFSTSLGIMVRTRDTASPIGAFMWPLHWSMWVGVFAALHLTALFLTLYEWRSPYGLTPRGRNRGTVFSYSSALNLCYAILFGRTVSSKTPKCPTGRFLMNLWAIFCLLVLSSYTANLAAVMVGDKTFEELSGIHDPKLHHPSQGFRFGTVWESSAEAYIKASFPEMHAHMRRHSAPTTPHGVAMLTSDPPKLNAFIMDKSLLDYEVSIDADCKLLTVGKPFAIEGYGIGLPQNSPLTSNLSEFISRYKSSGFIDLLHDKWYKMVPCGKRVFAVTETLQMGVYHLSGLFVLLCLGLGSALLTSLGEHVFYRLVLPRIRRGNKLQYWLHTSQKIHRALNTGPPEGQQERAEQECSGPKEEQPAADGAGRWRRVRRAVVERERRVRFLLEPGEAGGDHPWLCSNGPGVQAELRELELRIEAARERLRSALLRRGELRAQLGDGTRLRPLRLLHAAPAES
# What was measured:
# Assay type in all cases: cell-based
# [1] = test system: AMPA receptor (GluR2-(R586Q)); experiment: Kainate-induced AMPA receptor current in transfected HEK293 cells; conditions: coexpression of NR3B with GluR2-(R586Q) in HEK293 cells
# Protocol: (§1) To express the receptors in HEK293 cells, the cells were transfected with 1 μg of each plasmid unless otherwise stated (Shi et al., 1999). The NR1 and NR2A were tagged with green fluorescent protein (GFP) on the extracellular domain to facilitate the identification of transfected cells. […] NMDA receptor mediated current was recorded in the presence of 10 μM glycine. AMPA receptor current was recorded as described (Shi et al., 1999). Pipette solutions contained (in mM) Cs-methanesulfonate 110; CsCl 30; NaCl 4; HEPES 10; EGTA 5; CaCl2 0.5 adjusted to pH 7.3 with CsOH. 1 mM glutamate (for NMDA receptor) or kainate (for AMPA receptor) was pressure (1.0 PSI) applied through a puffer pipette positioned ˜10 μm to the cells. A program based on Igor (WaveMetrics, Inc., Lake Oswego, Oreg.) was used to acquire data on a Macintosh computer.
# [2] = test system: NMDA receptor (NR1 and NR2A); experiment: Glutamate-induced whole-cell current in transfected HEK293 cells
# Protocol: as §1
# [3] = test system: NR1 and NR2A tagged with GFP; experiment: Expression levels of GFP-tagged NR1 and NR2A by fluorescence intensity; conditions: presence or absence of NR3B; NR1 and NR2A individually expressed with NR3B
# Protocol: as §1
# The electrophysiological properties of NR3B were tested by expressing NR3B in HEK293 cells. A conventional NMDA receptor channel is formed by a heteromeric combination of NR1, which is a key subunit for functionality, and at least one NR2 subunit, which is modulatory (Dingledine et al., 1999). […] NR1 and NR2A tagged with GFP were individually expressed with NR3B and their expression levels were measured by the fluorescence intensity. The statistical significance in this figure was assessed by Kolmogorov-Smirnov test. […]
molecule,measurement,setting,value
B1,AMPA receptor mediated current,[1],unchanged
same,glutamate-induced whole-cell current,"[2]; NR3B coexpressed with NR1 and NR2A in HEK293 cells, compared with NR1 and NR2A alone",markedly depressed
same,formation of electrophysiologically functional channels,[2]; NR3B coexpressed with NR1 only (n=6),did not result in electrophysiologically functional channels
same,formation of electrophysiologically functional channels,[2]; NR3B coexpressed with NR2A only (n=5),did not result in electrophysiologically functional channels
same,current amplitude with increasing amount of NR3B plasmid,"[2]; NR3B plasmid 0, 1 and 3 μg versus other subunits (each 1 μg), +60 mV, Mg2+-free solution",concomitant decrease in current amplitude
same,sensitivity of the remaining current to Mg2+ block,"[2]; NR3B with NR1 and NR2A, presence or absence of 1 mM Mg2+",not affected
same,formation of electrophysiologically functional channels,[2]; expression of NR3B alone in HEK293 cells (n=6),did not result in electrophysiologically functional channels
same,expression levels of NR1 and NR2A (GFP fluorescence),[3],did not show any significant difference
